The record followed here is patent US20250388669A1 (published 2025).

The target of one assay is T1, PD-L1 (human, UniProt Q9NZQ7 19-238, limits assumed).
T1 construct: The reporter assay used Raji cells expressing human PD-L1
Kind of assay: FCM or ELISA.

The target in the next assay is T2, CD137 (UniProt Q07011 24-186, limits assumed).
T2 construct: also called 4-1BB
Briefly: FCM or ELISA (graded summary table). On the technique in general: In an ELISA, binding on a coated surface is turned into a signal by an enzyme label.

Another assay has as its target T3, B7H3 (UniProt Q5ZPR3 29-466, limits assumed).
T3 sequence (looked up): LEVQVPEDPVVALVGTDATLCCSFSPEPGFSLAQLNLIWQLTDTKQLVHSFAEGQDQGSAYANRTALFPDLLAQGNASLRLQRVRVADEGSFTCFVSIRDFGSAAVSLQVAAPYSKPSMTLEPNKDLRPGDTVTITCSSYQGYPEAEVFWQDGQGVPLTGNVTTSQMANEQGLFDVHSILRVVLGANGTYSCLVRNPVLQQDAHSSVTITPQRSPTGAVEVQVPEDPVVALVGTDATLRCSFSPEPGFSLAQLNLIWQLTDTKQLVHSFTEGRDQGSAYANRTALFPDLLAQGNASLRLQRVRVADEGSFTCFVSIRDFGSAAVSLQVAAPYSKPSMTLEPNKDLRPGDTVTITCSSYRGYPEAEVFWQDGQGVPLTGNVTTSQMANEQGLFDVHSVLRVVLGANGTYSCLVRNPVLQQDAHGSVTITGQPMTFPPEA
Kind of assay: FCM or ELISA (graded summary table).

T1 sequence (Q9NZQ7 19-238 limits assumed): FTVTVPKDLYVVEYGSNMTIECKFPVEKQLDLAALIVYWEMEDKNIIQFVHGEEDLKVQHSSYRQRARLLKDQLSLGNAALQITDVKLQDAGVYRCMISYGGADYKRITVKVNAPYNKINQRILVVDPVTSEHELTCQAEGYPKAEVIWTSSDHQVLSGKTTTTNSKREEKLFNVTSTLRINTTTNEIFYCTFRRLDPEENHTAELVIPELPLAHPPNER

B1: Ly2438 (bispecific antibody)
chain 1: QVQLVQSGAEVKKPGASVKVSCKASGYTFTDFWMSWVRQAPGQGLEWMGQIYPNTGTTHSNEKFKGRVTMTRDTSTSTVYMELSSLRSEDTAVYYCARSYHISTTPNWFAYWGQGTLVTVSSASTKGPSVFPLAPSSKSTSGGTAALGCLVKDYFPEPVTVSWNSGALTSGVHTFPAVLQSSGLYSLSSVVTVPSSSLGTQTYICNVNHKPSNTKVDKKVEPKSCGGGGSGGGGSGGGGSGGGGSEVQLVESGGGLVQPGGSLRLSCAASGFTFTNYGLHWVRQAPGKGLEWVSSISPSGGVTYYRDSVKGRFTISRDNSKNTLYLQMNSLRAEDTAVYYCAKPFLGWGGANWIAHWGQGTLVTVSSGGGGSDKTHTCPPCPAPEAAGPSVFLFPPKPKDTLMISRTPEVTCVVVDVSHEDPEVKFNWYVDGVEVHNAKTKPREEQYNSTYRVVSVLTVLHQDWLNGKEYKCKVSNKALPAPIEKTISKAKGQPREPQVYTLPPSREEMTKNQVSLWCLVKGFYPSDIAVEWESNGQPENNYKTTPPVLDSDGSFFLYSKLTVDKSRWQQGNVFSCSVMHEALHNHYTQKSLSLSPG
chain 2: QVQLVQSGAEVKKPGASVKVSCKASGYTFTDFWMSWVRQAPGQGLEWMGQIYPNTGTTHSNEKFKGRVTMTRDTSTSTVYMELSSLRSEDTAVYYCARSYHISTTPNWFAYWGQGTLVTVSSASTKGPSVFPLAPSSKSTSGGTAALGCLVKDYFPEPVTVSWNSGALTSGVHTFPAVLQSSGLYSLSSVVTVPSSSLGTQTYICNVNHKPSNTKVDKKVEPKSCGGGGSGGGGSGGGGSGGGGSDIQMTQSPSSLSASVGDRVTITCLASEDISNDLAWYQQKPGKAPKLLIYFVDRLLDGVPSRFSGSGSGTDFTLTISSLQPEDFATYYCQQSYKYPPTFGQGTKLEIKGGGGSDKTHTCPPCPAPEAAGPSVFLFPPKPKDTLMISRTPEVTCVVVDVSHEDPEVKFNWYVDGVEVHNAKTKPREEQYNSTYRVVSVLTVLHQDWLNGKEYKCKVSNKALPAPIEKTISKAKGQPREPQVYTLPPSREEMTKNQVSLSCAVKGFYPSDIAVEWESNGQPENNYKTTPPVLDSDGSFFLVSKLTVDKSRWQQGNVFSCSVMHEALHNRFTQKSLSLSPG
light: DIQMTQSPSSLSASVGDRVTITCKASQNVYKKLEWYQQKPGKVPKVLIYHTNILQTGVPSRFSGSGSGTDYTLTISSLQPEDVATYYCYQWNSGPTFGGGTKVEIKRTVAAPSVFIFPPSDEQLKSGTASVVCLLNNFYPREAKVQWKVDNALQSGNSQESVTEQDSKDSTYSLSSTLTLSKADYEKHKVYACEVTHQGLSSPVTKSFNRGEC
notes: PD-L1/CD40: two PD-L1 Fabs (Ly076), central CD40 Fv (TM559)
B1: the binding result with PD-L1 is recorded as “binds”.

B2: Ly2444 (bispecific antibody, human IgG1, kappa)
chain 1: QVQLVQSGAEVKKPGASVKVSCKASGYTFTDFWMSWVRQAPGQGLEWMGQIYPNTGTTHSNEKFKGRVTMTRDTSTSTVYMELSSLRSEDTAVYYCARSYHISTTPNWFAYWGQGTLVTVSSASTKGPSVFPLAPSSKSTSGGTAALGCLVKDYFPEPVTVSWNSGALTSGVHTFPAVLQSSGLYSLSSVVTVPSSSLGTQTYICNVNHKPSNTKVDKKVEPKSCDKTHTCPPCPAPEAAGPSVFLFPPKPKDTLMISRTPEVTCVVVDVSHEDPEVKFNWYVDGVEVHNAKTKPREEQYNSTYRVVSVLTVLHQDWLNGKEYKCKVSNKALPAPIEKTISKAKGQPREPQVYTLPPSREEMTKNQVSLWCLVKGFYPSDIAVEWESNGQPENNYKTTPPVLDSDGSFFLYSKLTVDKSRWQQGNVFSCSVMHEALHNHYTQKSLSLSPGGGGGSGGGGSGGGGSGGGGSEVQLVESGGGLVQPGGSLRLSCAASGFTFTNYGLHWVRQAPGKGLEWVSSISPSGGVTYYRDSVKGRFTISRDNSKNTLYLQMNSLRAEDTAVYYCAKPFLGWGGANWIAHWGQGTLVTVSS
chain 2: QVQLVQSGAEVKKPGASVKVSCKASGYTFTDFWMSWVRQAPGQGLEWMGQIYPNTGTTHSNEKFKGRVTMTRDTSTSTVYMELSSLRSEDTAVYYCARSYHISTTPNWFAYWGQGTLVTVSSASTKGPSVFPLAPSSKSTSGGTAALGCLVKDYFPEPVTVSWNSGALTSGVHTFPAVLQSSGLYSLSSVVTVPSSSLGTQTYICNVNHKPSNTKVDKKVEPKSCDKTHTCPPCPAPEAAGPSVFLFPPKPKDTLMISRTPEVTCVVVDVSHEDPEVKFNWYVDGVEVHNAKTKPREEQYNSTYRVVSVLTVLHQDWLNGKEYKCKVSNKALPAPIEKTISKAKGQPREPQVYTLPPSREEMTKNQVSLSCAVKGFYPSDIAVEWESNGQPENNYKTTPPVLDSDGSFFLVSKLTVDKSRWQQGNVFSCSVMHEALHNRFTQKSLSLSPGGGGGSGGGGSGGGGSGGGGSDIQMTQSPSSLSASVGDRVTITCLASEDISNDLAWYQQKPGKAPKLLIYFVDRLLDGVPSRFSGSGSGTDFTLTISSLQPEDFATYYCQQSYKYPPTFGQGTKLEIK
light: DIQMTQSPSSLSASVGDRVTITCKASQNVYKKLEWYQQKPGKVPKVLIYHTNILQTGVPSRFSGSGSGTDYTLTISSLQPEDVATYYCYQWNSGPTFGGGTKVEIKRTVAAPSVFIFPPSDEQLKSGTASVVCLLNNFYPREAKVQWKVDNALQSGNSQESVTEQDSKDSTYSLSSTLTLSKADYEKHKVYACEVTHQGLSSPVTKSFNRGEC
notes: PD-L1/CD40: two PD-L1 Fabs (Ly076), terminal CD40 Fv (TM559)
Regarding B2, the binding result in the assay with PD-L1 is “binds”.

B3: Ly1963 (other)
chain 1: QVQLVQSGAEVKKPGASVKVSCKASGYTFTSYVMHWVRQKPGQGLEWIGYINPYNEGTESTDKFKGRATMTSDKSTSTVYMELSSLRSEDTAVYYCASIYYGYEGTYFGVWGQGTLVTVSSASTKGPSVFPLAPSSKSTSGGTAALGCLVKDYFPEPVTVSWNSGALTSGVHTFPAVLQSSGLYSLSSVVTVPSSSLGTQTYICNVNHKPSNTKVDKKVEPKSCGGGGSGGGGSGGGGSGGGGSEVQLVESGGGLVQPGGSLRLSCAASGFTFSTYAMNWVRQAPGKGLEWVGRIRSKYNNYATYYADSVKGRFTISRDDSKNSLYLQMNSLKTEDTAVYYCVRHGNFGNSYVSWFAYWGQGTLVTVSSGGGGSDKTHTCPPCPAPEAAGPSVFLFPPKPKDTLMISRTPEVTCVVVDVSHEDPEVKFNWYVDGVEVHNAKTKPREEQYNSTYRVVSVLTVLHQDWLNGKEYKCKVSNKALPAPIEKTISKAKGQPREPQVYTLPPSREEMTKNQVSLWCLVKGFYPSDIAVEWESNGQPENNYKTTPPVLDSDGSFFLYSKLTVDKSRWQQGNVFSCSVMHEALHNHYTQKSLSLSPGGGGGSGGGGSGGGGSGGGGSQVQLVQSGAEVKKPGASVKVSCKASGYTFAGFEMHWVRQAPGQGLEWMGAIDPKTGGTDYNQKFKDRVTMTRDTSISTAYMELSRLRSDDTAVYYCARDLGYFDVWGQGTLVTVSS
chain 2: QVQLVQSGAEVKKPGASVKVSCKASGYTFTSYVMHWVRQKPGQGLEWIGYINPYNEGTESTDKFKGRATMTSDKSTSTVYMELSSLRSEDTAVYYCASIYYGYEGTYFGVWGQGTLVTVSSASTKGPSVFPLAPSSKSTSGGTAALGCLVKDYFPEPVTVSWNSGALTSGVHTFPAVLQSSGLYSLSSVVTVPSSSLGTQTYICNVNHKPSNTKVDKKVEPKSCGGGGSGGGGSGGGGSGGGGSQAVVTQEPSLTVSPGGTVTLTCRSSTGAVTTSNYANWVQQKPGQAPRGLIGGTNKRAPWTPARFSGSLLGGKAALTITGAQAEDEADYYCALWYSNLWVFGGGTKLTVLGGGGSDKTHTCPPCPAPEAAGPSVFLFPPKPKDTLMISRTPEVTCVVVDVSHEDPEVKFNWYVDGVEVHNAKTKPREEQYNSTYRVVSVLTVLHQDWLNGKEYKCKVSNKALPAPIEKTISKAKGQPREPQVYTLPPSREEMTKNQVSLSCAVKGFYPSDIAVEWESNGQPENNYKTTPPVLDSDGSFFLVSKLTVDKSRWQQGNVFSCSVMHEALHNHYTQKSLSLSPGGGGGSGGGGSGGGGSGGGGSDIQMTQSPSSLSASVGDRVTITCRASQDIRSNLNWYQQKPGGAVKLLIYYTSRLHSGVPSRFSGSGSGTDYTLTISSLQPEDFATYFCQQSEKLPRTFGGGTKVEIR
light: EIVLTQSPATLSLSPGERATLSCRASSSVSYMHWYQQKPGQAPRPWIYATSNLASGIPARFSGSRSGTDYTLTISSLEPEDFAVYYCQQWSSNTLTFGGGTKVEIKRTVAAPSVFIFPPSDEQLKSGTASVVCLLNNFYPREAKVQWKVDNALQSGNSQESVTEQDSKDSTYSLSSTLTLSKADYEKHKVYACEVTHQGLSSPVTKSFNRGEC
notes: Tri-specific antibody B7H3 (two Fabs) / CD3 (central Fv) / CD137 (terminal Fv)
For B3, the binding result in the assay with CD137 and with B7H3 was “binds” each time.

B4: Ly2122 (bispecific antibody, human IgG1, kappa)
chain 1: QVQLVQSGAEVKKPGASVKVSCKASGYTFTSYVMHWVRQKPGQGLEWIGYINPYNEGTESTDKFKGRATMTSDKSTSTVYMELSSLRSEDTAVYYCASIYYGYEGTYFGVWGQGTLVTVSSASTKGPSVFPLAPSSKSTSGGTAALGCLVKDYFPEPVTVSWNSGALTSGVHTFPAVLQSSGLYSLSSVVTVPSSSLGTQTYICNVNHKPSNTKVDKKVEPKSCDKTHTCPPCPAPEAAGPSVFLFPPKPKDTLMISRTPEVTCVVVDVSHEDPEVKFNWYVDGVEVHNAKTKPREEQYNSTYRVVSVLTVLHQDWLNGKEYKCKVSNKALPAPIEKTISKAKGQPREPQVYTLPPSREEMTKNQVSLWCLVKGFYPSDIAVEWESNGQPENNYKTTPPVLDSDGSFFLYSKLTVDKSRWQQGNVFSCSVMHEALHNHYTQKSLSLSPGGGGGSGGGGSGGGGSGGGGSQVQLVQSGAEVKKPGASVKVSCKASGYTFAGFEMHWVRQAPGQGLEWMGAIDPKTGGTDYNQKFKDRVTMTRDTSISTAYMELSRLRSDDTAVYYCARDLGYFDVWGQGTLVTVSS
chain 2: QVQLVQSGAEVKKPGASVKVSCKASGYTFTSYVMHWVRQKPGQGLEWIGYINPYNEGTESTDKFKGRATMTSDKSTSTVYMELSSLRSEDTAVYYCASIYYGYEGTYFGVWGQGTLVTVSSASTKGPSVFPLAPSSKSTSGGTAALGCLVKDYFPEPVTVSWNSGALTSGVHTFPAVLQSSGLYSLSSVVTVPSSSLGTQTYICNVNHKPSNTKVDKKVEPKSCDKTHTCPPCPAPEAAGPSVFLFPPKPKDTLMISRTPEVTCVVVDVSHEDPEVKFNWYVDGVEVHNAKTKPREEQYNSTYRVVSVLTVLHQDWLNGKEYKCKVSNKALPAPIEKTISKAKGQPREPQVYTLPPSREEMTKNQVSLSCAVKGFYPSDIAVEWESNGQPENNYKTTPPVLDSDGSFFLVSKLTVDKSRWQQGNVFSCSVMHEALHNRFTQKSLSLSPGGGGGSGGGGSGGGGSGGGGSDIQMTQSPSSLSASVGDRVTITCRASQDIRSNLNWYQQKPGGAVKLLIYYTSRLHSGVPSRFSGSGSGTDYTLTISSLQPEDFATYFCQQSEKLPRTFGGGTKVEIR
light: EIVLTQSPATLSLSPGERATLSCRASSSVSYMHWYQQKPGQAPRPWIYATSNLASGIPARFSGSRSGTDYTLTISSLEPEDFAVYYCQQWSSNTLTFGGGTKVEIKRTVAAPSVFIFPPSDEQLKSGTASVVCLLNNFYPREAKVQWKVDNALQSGNSQESVTEQDSKDSTYSLSSTLTLSKADYEKHKVYACEVTHQGLSSPVTKSFNRGEC
notes: Bispecific B7H3 (two Fabs) / CD137 (terminal Fv)
Regarding B4, the binding result in the assay with CD137 and in the assay with B7H3 was “binds” each time.
